Data taken from the supplement of paper PMC12764529.
± gives the half width of the 95% confidence interval.

Columns and labels:
[1] = folding stability dG unfold from chymotrypsin proteolysis; higher = more stable
Procedure, shortened: (§1)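 Digests were run with trypsin and chymotrypsin at 11 concentrations in threefold dilutions, plus a no-protease condition, on designed mini-proteins in a PA-tagged cDNA display construct. The mini-proteins were under 80 residues, had no cysteine, and were kept only when AlphaFold2 dimer inter-PAE was above 15. After sequencing, Bayesian fitting of the counts gave K50, from which unfolding free energy was derived against a sequence-predicted unfolded-state K50 and a shared folded-state K50, per protease or combined.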

[2] = folding stability dG unfold from trypsin proteolysis; higher = more stable
Procedure, shortened: as §1

[3] = folding stability dG unfold (combined trypsin and chymotrypsin); higher = more stable
Procedure, shortened: as §1

| Sequence | folding stability dG unfold [1] [kcal/mol] | folding stability dG unfold [2] [kcal/mol] | folding stability dG unfold [3] [kcal/mol] |
| --- | --- | --- | --- |
| SAGGSAGGSAKYITIFFWGSVEEALKSIPIPPGFKVEIDNIHRNPDGWMWVMITIEIPPNMKSAGGSAGGSA [r18_510_TrROS] | 4.36 ± 0.12 | 2.68 ± 0.088 | 4.28 ± 0.22 |
| SAGGSAGGSMKVEITKVEPETGPNGRPYYRVEVKVIGEDGSPYTFTFYFEKPSDIENAKISLDSAGGSAGGS [r20_130_TrMRF] | 3.91 ± 0.07 | 2.67 ± 0.19 | 3.5 ± 0.21 |
| SAGGSAGGSAGGMTPIEKEEPHHHMTFTREGDTVSLETFPGSGSIRKTLPSEEEVEKLLSAGGSAGGSAGGS [r10_1104_JUSTAS] | 0.156 ± 0.096 | -0.413 ± 0.071 | 0.00761 ± 0.11 |
| SAGGSAGGSAGGMPLVRIEVTNENGEKFTFIFESEEEAKAAAEALGVDVKIEKIPPGEEISAGGSAGGSAGG [r7_456_TrROS_Hall] | 3.25 ± 0.085 | 2.54 ± 0.17 | 2.92 ± 0.14 |
| SAGGSAGGSAGGSMITIEVTTPTEKHTIEVPEDEVPEEELIERAKKLFPDVEKITILKESAGGSAGGSAGGS [r4_235_JUSTAS] | 0.613 ± 0.059 | 0.65 ± 0.037 | 0.636 ± 0.08 |
| SAPNIEIDYNKDNGMITIRLPGTGVEYMIPMPDGQLMAIDIEVKPDPDGKRKISIEIYFPDGKEHEFEISAG [r14_675_TrROS] | 2.45 ± 0.17 | 2.19 ± 0.29 | 2.3 ± 0.39 |
| SAGGSAKPEPIKIEIGPGGNRFKATFPNGDEADVDVVKDGDKTYLLITVTSPDGKPRPFKIPLEKLSAGGSA [r15_941_TrMRF] | 2.24 ± 0.023 | 1.76 ± 0.042 | 2.1 ± 0.05 |
| SAGGSAGGGEPFVIRVELEWPNNNSIPFNIPFPPGDAITAAKNIASPLRKMGRPIKIKITDIYPSAGGSAGG [r6_721_TrROS] | 0.0836 ± 0.41 | 0.545 ± 0.13 | 0.419 ± 0.16 |
| SAGGSATSIEYESPGVVETVSFTREPDGTLTVTVTVREPNGPVLKTLPTTETLPPDAGVTASVPLPSAGGSA [r15_950_JUSTAS] | 0.921 ± 0.13 | 0.0919 ± 0.16 | 0.529 ± 0.18 |
| SMFRIRFKDGSEFDIELNEDGELTITNKNGKKITLTFKTKEEALKAAEELKKKYPNMKVEIEEVSPEELKSA [r9_1206_TrROS_Hall] | 3.504 ± 0.016 | 2.6 ± 0.059 | 3.13 ± 0.12 |
| KIPITIEEDPEDKMYELRVPDGMPIQIQRSKDGYRVSIWNPDNGKPREIPITKKDLKDLLSNPGFWIEIYKS [r1_18_TrROS] | 1.56 ± 0.078 | 1.64 ± 0.062 | 1.77 ± 0.11 |
| SAGGSAGGSAGGSLEIEITFELPDDVRLRIRARIEPLPDGSLKVEVEIELIPVKPDEDLSAGGSAGGSAGGS [r10_241_TrMRF] | 2.9 ± 0.089 | 3.17 ± 0.15 | 3.09 ± 0.21 |
| SAGGSAEEIARKLAEELAEEGEEVEVEVVEVEVEKVDGKEKVIRIRVKVKLPNGEELELELEIKLDELSAGG [r13_215_TrROS_Hall] | 2.18 ± 0.28 | 2.38 ± 0.16 | 2.43 ± 0.24 |
| SAGGMAIKDVRVEGGVLYVYRGDKLVAKIEPGAAQPPVLVRFPDGTVVAVPRSVALALNPETLEFFDVSAGG [r13_802_TrMRF] | 1.44 ± 0.087 | 1.24 ± 0.032 | 1.43 ± 0.043 |
| SAGGKIEELAKELAKKLNIEKVEVEEKDGKLVVKLVVKDKKTNKYYRITIEVDDDGNIKISIEPLPPSAGGS [r16_433_TrROS_Hall] | 5.17 ± 0.12 | 3.91 ± 0.2 | 5.12 ± 0.2 |
| SAGGSAGGSAGGMTTTTTAPESGDLVTIHPEKGIAVVTSPEGKVTEVPIDPDDYSVEPASAGGSAGGSAGGS [r10_568_JUSTAS] | 1.57 ± 0.079 | 0.343 ± 0.076 | 1.19 ± 0.12 |
| SAGGSAGGSAMPGQKVRLTDELKKAGLEIEEAEVVEVDGKLYIRVNGKIIEIDADAIEEIEPSAGGSAGGSA [r18_445_TrROS_Hall] | 1.43 ± 0.037 | 0.366 ± 0.13 | 1.11 ± 0.1 |
| SAGGSAGGSAPPDEGQKWVPVTFPIEFPLPDGNKVKIPIDFWYPKEDGKPIAMQIEWWAKNSAGGSAGGSAG [r3_484_TrROS] | 1.42 ± 0.22 | 0.373 ± 0.13 | 0.72 ± 0.26 |
| SGPFQFFVKIEYKGKNGKTQERELPINMPPGDFDKFIEEILDDPNLEGADDVEIDVYMAGTGRPQEIEIPSA [r9_97_TrROS] | 1.22 ± 0.11 | 0.678 ± 0.061 | 1.07 ± 0.092 |
| SAGGSAGGSAGGPENDWREVDIKIKFENPEGKPIFDIKIYYMPDGDIMIYFPNGNWIWISAGGSAGGSAGGS [r10_972_TrROS] | 4.14 ± 0.065 | 2.42 ± 0.14 | 3.75 ± 0.17 |
| SAGGGSMEEARRLIEEIAEEVKAKGVKVKVRITFGPDPKVLSIEIFSPDEPIVDNGGPGLVTLTFDIPSAGG [r13_693_JUSTAS] | 2.778 ± 0.023 | 2.07 ± 0.057 | 2.55 ± 0.063 |
